Data on 40 sequences can be found in the nanobody polyreactivity screen of Harvey et al. (2022).

The data set is described as follows: yeast display, Sf9 membrane polyspecificity reagent, FACS + sequencing; frameworks hold sequencing errors. The method, boiled down: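 Using colony PCR, genes from sorted yeast display clones were amplified, then sequenced on MiSeq at 2 × 250 and filtered by CDR length. The clones had been stained with 10% biotinylated, detergent-solubilized Sf9 membrane reagent for 1 hour at 4 °C and sorted by FACS into low and high (top ~1%) gates on anti-HA and streptavidin fluorescence. Polyreactivity labels come from the gate of origin.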
As to “KVQLVESGGGLVQAGGSLRLSCAATGRIFRPKAMGCYIQAPGKEREMVAAIRSTVGSTFYEYSVKGRFSISRDNAKNTVYLEMNRLKREDTAVYYCAGGTSRQFYYWGQGTQVTVSS”, the “polyreactivity (PSR sort gate)” value is reported as “low polyreactivity”. In the case of “KVQLVESGGGLVQAGGSLRLSCPASGSIFTSYAMGWYRQAPGKERELVAAISSGGSTNYADSVKGRFTISRDNAKNTVYLQMNSLKPEDTAVYYCAKGSRKSGYKYYHGRVWFGYWGQGTQVTVSS”, the “polyreactivity (PSR sort gate)” value is reported as “high polyreactivity”. The entry for “KVQLVESGGGLVQAGGSLRLSRAASGFTFGSYAMGWYRQAPGKERELVAAITRRGGSTRYADSVKGRFTISRDNAKNTVYLQMNSLKPEDTAVYYCAAKHGRNYAANALYGYWGQGTQVTVSS” is “high polyreactivity”; for “KVQLVESGGGLVQAGGSLRLTCAASGSTFYIYAMGWYRPAPGKERELVATISSTGSTHYADSVKGRFTISRDNAKNTVFLQMNSLKPEDTAGYYCNPVYFGRYSRRDHWGQGTQVTVSS” it is “high polyreactivity”. The entry for “KVQLVESGSGFVQAGGSLGLSCAASGSIFRGYAMGWYRQAPGKERELVAAISWSGGTTYYADSVKGRLTISRDNEKNTFYLQMNSLKPEDTAVYYCAADTTVTITSKYNYWVQGTQVTVSS” is “low polyreactivity”; for “LVQLQESGGGLVQAGGSLRLSCAASGTISPGGYMGWYRQAPGKERELVASINVGGSTNYADSVKGRFTISRDNAKNTVYLQMKSLKPEDNAVYYCAVWGRNRLQLSYWGQGTQVTVSS” it is “low polyreactivity”; for “LVQLVESGGGLVQAGGSLRLSCAASGFIFGYYAMGWYRQAPGKERELVAASTRSGGSTRYADSVKGRFTISRDKAKNTVYLQMNSLKPEDSAVYYCAADSCPINLYEDYWGQGTQVTVSS” it is “high polyreactivity”. The entry for “LVQLVESGGGLVQAGGSLRLSCAASGFTFPDYAMGWYRPAPGKERELVAAISSDGSTYYADSVKGRFTISRDNAKNTVYLQMNSLKPEDTAVYYCAAYVVWLYGYDYWGQGTQVTVSS” is “low polyreactivity”; for “LVQLVESGGGLVQAGGSLRLSCAASGSTFGYNAMGWYRQAPGKERELVAAISRGAGSTYYADSVKGRFTITRDNAKYTVYLQMNCLKPEDTAVYYCAKERPRGAPAYYSRIYDYWGQGTQVTVSS” it is “high polyreactivity”. Take “LVQLVESGGGLVQAGGSLRLSCAASGSTFSVNALGWYRQAPGNERELVAAITYSGGSTYYADSVKGRFTISRDTAKNTVYLQMNSLKPEDTAVYYCATRVWFYKSRGGYRERDYWGQGTQVTVSS”: the “polyreactivity (PSR sort gate)” value is “high polyreactivity”.

For the sequence “LVQLVESGGGLVQAGGSLRLSCAASGSTSRKYTMGWYRQSPGKERELVARITSSGSSTYYADSVKGRFTISRDTAKNTVYLQMNSLKAEDTADYYCNARAHSDRKSSYIYLPYSYDYWGQGTQVTVSS”, the “polyreactivity (PSR sort gate)” value is “high polyreactivity”. Take “LVQLVESGGGLVQAGGSLRLSFAASGLIFGRYAMGWYTQAPGKERELVAAISSSGVRTYYADSVKGRFTLSRDNAKNTVYLQLNSLKPEDTAVYYCAAAYWSSPEDTVIKRYYWGQGTQVTVSS”: the “polyreactivity (PSR sort gate)” value is recorded as “high polyreactivity”. As to “LVQLVESGRGLVQAGGSLRLSCAASGSTFRINAMGWYRQAPGKERELVADINSGGNTTYADSVKGRFTISRDNAKNTVYLQMKSLIPEDTAVSYCAADPVFDLWEFLLDYGYDYWGQGSQVTVSS”, the “polyreactivity (PSR sort gate)” value is “low polyreactivity”.

For the sequence “LVQLVQSGGGLVQAGGSLRLSCAASGLTFDYYAKGWYRQAPGKERELVAVISSGGSTYYADSVKGRITISRDNAKNTVYLQMNSLKTEDTAVYYCAAEIYRYRLRDEYDYWGQGTQVTVSS”, the “polyreactivity (PSR sort gate)” value is “low polyreactivity”. As to “NVQLVESGGGLVQAGGSLRLSCAASGGIFYRYAMGWYRQAPGKEWELVATISRRGGRTYYADSVKGRFTISRDNEKNTVYLQMNSLKPEDTAVYYCAADEWQSGHCLEDDYWGQGTQVTVSS”, the “polyreactivity (PSR sort gate)” value is listed as “high polyreactivity”.

Turning to “NVQLVESGGGLVQAGGSLRLSCAASGRTFNGYAMGWYRQAPGKERDLVASISWSGGRTYYADSVKGRFTISRDNAKNTVYLQMNSLKPEDTAVYYCAATFVNVVGYDYWGQGTQVTVSS”, the “polyreactivity (PSR sort gate)” value is on record as “high polyreactivity”. “PDQLVESGGGLVQAGGSLRLSCAASGRIFGTNAMGWYRQAPGKERELVADITSGGSTNYADSVKGRFTISRDNAKNTVYLQMNSLKPEDTAVYYCAADVIGDLRWYRDEYWGQGTQVTVSS”: the “polyreactivity (PSR sort gate)” value was “low polyreactivity”. The entry for “PDQLVESGGGLVQAGGSLRLSCAASGRTFSGYGMGWYRQAPGKERELVAAFSSSGDSTYYADSVKGRFSIARDNPKNTVYVQMNSLKPDDPAVYYCNDYRRSYNGFRYYYWGQGTQVTVSS” is “low polyreactivity”; for “PVQLLESGRGLVQAGGRLRLSCAASGINFKYNAMGWYRQAPGKERELVAAISWRGGSTYYADSVKGRFTISRDNAKNTVSLQMNSLKPEDTAVYSCAANLAGSSYYDWGQGTQVTVSS” it is “low polyreactivity”. The entry for “PVQLQESGGGLVQAGRSLRMSSAASGNIFDADIMGWYRQAPGKERELVACIADGGSTNYADSVKGRFTISRDNAKYTVYLQMNSLKPEDTAVYYCAAIAYPDIPTCFDYDSDYFFRGQGTQVTVSS” is “low polyreactivity”; for “PVQLVESGGGLVQAGGSLRLSCAASGFISQDNAMGWYRQAPAKERELVATISGSGGITYYADSVKGRFTISRANAKTTVYVQMNSLKPEDTAVYYCNNEISYLSWGYDYWGQGTQVTVSS” it is “low polyreactivity”; for “PVQLVESGGGLVQAGGSLRLSCAASGFTFSYYAMGWYRQAPGQEWELVAGIDDSCGSTYYADSVKGRFTISRDNAKNTVELQMNSLKPEDTAFYYCNAVYARKYYYSHGYDYWGQGTQVTVSS” it is “high polyreactivity”. The same measure for “PVQLVESGGGLVQAGGSLRLSCAASGIIFYDYAMGWYRQAPGKERELGATITSGGSTNYADSVKGRFTISRDNAKNTVYLQLNSLKPEDTAVYYCAAGRGLILGGVYGYDYWGQGTQVTVSS”: “low polyreactivity”. With “PVQLVESGGGLVQAGGSLRLSCAASGIIFYRNAMAWYRQAPGKERELVAAITSSGGRTYYAYSVKGRFTISRDNAKNTVYLQMNRLKPEDTAVYYCAATRLYWKIFYGDGDYWGQGTQVTVSS”, the “polyreactivity (PSR sort gate)” value is “high polyreactivity”. For the sequence “PVQLVESGGGLVQAGGSLRLSCAASGRIFAYYAMGWYRQATGKERELVAAITRRGSTNYADSVKGRFTISGDNAKNTVYLQMNSLKQEVTAFYYCAARDAIYGSDYWGQGTQVNVSS”, the “polyreactivity (PSR sort gate)” value is given as “high polyreactivity”. Turning to “PVQLVESGGGLVQAGGSLRLSCAASGRTFNSYPMVWYRQAPGKERELVADITSSGGSTYADSVKGRFTISRDNAKNTVYLQMNSLKPEDTAVYYCAVDNISNWAVENDYWGQGTQVTVSS”, the “polyreactivity (PSR sort gate)” value is reported as “low polyreactivity”. On to “PVQLVESGGGLVQAGGSLRLSCAASGRTYYTNAIGWYRQAAGNVRELVAAITGDGTSTYYADSVKGRFTMSRDNATYTVFLQINSLKPEDTAVYYCAATGGDRYEAYSYWGQGTQVTVSS”, for which the “polyreactivity (PSR sort gate)” value was “low polyreactivity”. The entry for “PVQLVESGGGLVQAGGSLRLSCAASGSIFFGYAMGWYRQAPGKERELVAAFNGSVITSYADSVKGRFTISRDNAKNPVYVQMNSLKPEDTAYYCNTGSTWGAVIANYDHWGQGTQVTVSS” is “low polyreactivity”; for “PVQLVESGGGLVQAGGSLRLSCACSGRIFIYNSMGWYRQATGKEREFVAAISSSGGSTYYADSVKGRFTISRDNAKNTVYLHLNSLKPEDTAVYYCAAGGWPYSGGWFFQPNYYYWGQGTQVTVSS” it is “low polyreactivity”; for “PVQLVESGGGLVQAGGSLRLSCADSGNIFTYNAMGWSRPEPGTERELVAGITSAGGTYYADSVKGRFTISRDNAKNSVYLQMNSLKPEDTAVYYWNVDYDNDTVRGDKIGYSYEYWGHGTQVTVSS” it is “low polyreactivity”. Turning to “PVQLVESGGGLVQAGGSLRLSCPASGRILVGNAMGWYRQAPGKERELVAALTSSGDSTNYADSVKGRFTISRDNAKNTVYLQMNSLKPEDTAVYYCAAGSFGTSGFSDVIWEGDYWGQGTQVTVSS”, the “polyreactivity (PSR sort gate)” value is reported as “low polyreactivity”.

“PVQLVESGGGLVQAGGSLSLTCAASGFIFYDYAMRWYRPAPGKERELVAGITSSGTSTYYADSVKGRFTISRDNAKNTVYLQMNSLKPEDTSVYYFNKAPSWWDVRVPFDYWGQGTQVTVSS”: the “polyreactivity (PSR sort gate)” value was “low polyreactivity”.

Turning to “PVQLVESGGRLVQEGGSLRLICAASARIFPYYSMGWSRPAPGKERELVAAITTSGCRTYYADSVKGRFTISRDNAKYSVYLLMNSMKPEYTAVYVCNKYARGYDMDYWGQGTQVTVSS”, the “polyreactivity (PSR sort gate)” value is on record as “high polyreactivity”. Take “QAELVESGGGLVQAGGSLRLSCAASGLTFRAYAMGGYRQAPGKERELVAAISWNGGSTYYADSVKGRFTISRDNAKNTVYLQMNCLKPEDTAVYYCNAYDYQYFYGYEYDYWGQGTQVTVSS”: the “polyreactivity (PSR sort gate)” value is given as “high polyreactivity”. The same measure for “QAQLQESGGGLVQADGSLRLCCAASGSIFQTIYMGWYRQAPGKERELVASIDIGANTDYAVSVKGRFTISRDNAKNSVYLQMHSLKPEDTAVYYCAARYSRGRLLVSRGNYWGQGTQVTVSS”: “high polyreactivity”; for “QAQLVESGGGLVQAGGSLRLSCAASGYTFTANVMGWYRQAPGKERELVAAISWSGTSTSYADSVKGRFTISRDNAKNNVYLQMNSLKPEDTAVYYCNTVPYYTGSNGYWGQGTQVTVSS”: “low polyreactivity”; for “QAQLVETGGGLVQAGGSRRLSCAASGRTYKGYVMGWYRQAPGKEREFVAVITRDGGSTYYAVSVKGRFTISRDNAKNTVYLEMKSLKPEDTEVYYCASTYYPVAGEYDYWGQGTKVTVSS”: “low polyreactivity”. The entry for “QAQSVESGGGLVQAGGSLRLICAASGITFGNYAMGWYRQAPGKERALVASISWNVGSTYYADSVKGRFTISRDNAKNTVYLQMNSLKPEDTSVYYCARGYDRPRVATFHRFDYWGQGTQVTVSS” is “low polyreactivity”; for “QDHLVDSGGGLVQAGGSLRLSCDASGRIFRWYTMGWYRQAPGKERELVATITSSGITSYADSVKGRFTISRDNAKNTDYLQMNSLKPEDTAVYYCAADHYYYIHGYDYWGQGTQVTVSS” it is “high polyreactivity”. The same measure for “QDHLVESAAGLVQAGGRLRLSCAASGSTLYDYAMVWSRKAPGKDRELVAAIRTGGSTYYADSVKGRFTISRDNAKNTVYLQMNSLKTEDTAVYYCAADHGYQYGYWGQGTQVTVSS”: “low polyreactivity”.
